The values that follow come from article PMC1065253.

In series [1] the target is T1, SeqA(E5,9K) (Escherichia coli, UniProt P0AFY8 1-181, E5K;E9K).
T1 sequence: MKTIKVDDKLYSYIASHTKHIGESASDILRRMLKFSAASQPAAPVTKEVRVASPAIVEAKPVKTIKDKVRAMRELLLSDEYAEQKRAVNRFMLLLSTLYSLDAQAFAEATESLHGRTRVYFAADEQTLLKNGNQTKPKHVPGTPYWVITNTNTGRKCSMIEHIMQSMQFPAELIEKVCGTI
Nature of the series: EMSA. (In general: In EMSA bound probe runs differently from free probe, usually more slowly.)

The target in series [2] is T2, SeqA(D7K) (Escherichia coli, UniProt P0AFY8 1-181, D7K).
T2 sequence: T1 sequence with K5E, D7K, K9E
Nature of the series: EMSA.

Series [3] deals with T3, SeqA (Escherichia coli, UniProt P0AFY8 1-181).
T3 sequence: T1 sequence with K5E, K9E
Nature of the series: AFM.

Series [4] deals with T4, SeqA(D8K) (Escherichia coli, UniProt P0AFY8 1-181, D8K).
T4 sequence: T1 sequence with K5E, D8K, K9E
The series is described as follows: EMSA.

Series [5] addresses T5, SeqA(E9K) (Escherichia coli, UniProt P0AFY8 1-181, E9K).
T5 sequence: T1 sequence with K5E
The series is described as follows: EMSA.

Series [6] has as its target T6, SeqA(E5K) (Escherichia coli, UniProt P0AFY8 1-181, E5K).
T6 sequence: T1 sequence with K9E
The series is described as follows: EMSA.

The target in series [7] is T3, SeqA. Nature of the series: EMSA.
Series [8] deals with T7, SeqA(T18G) (Escherichia coli, UniProt P0AFY8 1-181, T18G).
T7 sequence: T1 sequence with K5E, K9E, T18G
Nature of the series: EMSA.

Series [9] has as its target T3, SeqA. The series is described as follows: AFM. The source holds these as a separate data set.

Residue numbers refer to the chain shown, from its start.

B1: 75 bp, two hemi-sites, 21 bp spacing (dsDNA)
DNA 1: CTGGGTATTAAAAAGAAGATCTATTTATGTTCAGTTCTGATCTGTTCTGTTCTCTTATTAGGCTCGCACTGCCCT
DNA 2: AGGGCAGTGCGAGCCTAATAAGAGAACAGAACAGATCAGAACTGAACATAAATAGATCTTCTTTTTAATACCCAG
modifications: hemi-methylated GATC (N6-methyladenine on one strand; which strand not stated)
As for B1, the binding result is given as “no binding” in series [1]; “no binding” in series [2]; “binds” in series [3]; “binds” in series [4]; “binds” in [5]; “binds” in [6].

B2: 75 bp, two hemi-sites, 16 bp spacing (Fig 3A) (dsDNA)
DNA 1: B1 DNA 1 with G29T, T31A, C32G, T35A, A40T, G44A, C47G, T50A, C63A
DNA 2: B1 DNA 2 with G13T, A26T, G29C, C32T, T36A, A41T, G44C, A45T, C47A
modifications: hemi-methylated GATC (N6-methyladenine on one strand; which strand not stated)
For B2, the binding result in series [7] and in series [8] was “binds” each time.

B3: 75 bp, two hemi-sites, 16 bp spacing (Fig 2E) (dsDNA)
DNA 1: B1 DNA 1 with T35A, A40T
DNA 2: B1 DNA 2 with T36A, A41T
modifications: hemi-methylated GATC (N6-methyladenine on one strand; which strand not stated)
Consider B3, for which the binding result in series [9] was “binds”.

B4: 75 bp, two hemi-sites, 31 bp spacing (dsDNA)
DNA 1: B1 DNA 1 with A40T, T50A
DNA 2: B1 DNA 2 with A26T, T36A
modifications: hemi-methylated GATC (N6-methyladenine on one strand; which strand not stated)
For B4, the binding result in [9] is listed as “binds”.

B5: 75 bp, two hemi-sites, 11 bp spacing (dsDNA)
DNA 1: B1 DNA 1 with T30A, A40T
DNA 2: B1 DNA 2 with T36A, A46T
modifications: hemi-methylated GATC (N6-methyladenine on one strand; which strand not stated)
For the molecule B5, the binding result in [9] is “binds”.
